# Experiment: yeast display, Sf9 membrane polyspecificity reagent, FACS + sequencing; frameworks hold sequencing errors
# Summary of the method: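 A nanobody's polyreactivity label depends on the gate it was sorted from. Yeast display cells were stained with 10% biotinylated, detergent-solubilized Sf9 membrane reagent for 1 hour at 4 °C, enriched on streptavidin microbeads and sorted by FACS. The low and high (top ~1%) gates were set on anti-HA fluorescence for expression and streptavidin fluorescence for reagent binding.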
row,Sequence,polyreactivity (PSR sort gate)
1,QVQLVESGGGLVQAGGSLRLSCADSGITFKYNAMGWYRQAPGKERELVAGITWTGGTTYYADSVKGRFTISRDNAKNTVYLQMNSLNPEDTAVYYCATRNYAVVPSVRREGYYWGQGTQVTVSS,low polyreactivity
2,QVQLVESGGGLVQAGGSLRLSCADSGITFYRYAMGWYRQAPGKERELVATITSSGGRTYYADSVKGRFTISRDNAKNTVYLQLNSLKPEDTAVYYSAAGKFSYRVYYQFRGGNYWGQGTQVTVSS,high polyreactivity
3,QVQLVESGGGLVQAGGSLRLSCADSGLIFTAHDMGWYRQAPGKERELVADISKSGSSTYYADSVKGRFTISRDNAKNTVYLQMNSLKPEDTAVYYCNADYLTYFTTFDYWGQGTQVTVSS,low polyreactivity
4,QVQLVESGGGLVQAGGSLRLSCADSGLTFQRYAMGWYRQAPGKERELVAAISQRGSSTYYADSVKGRFTISRDNAKNTVYLQMNSLKPEDTAVYYCNARPYLFWLSIYDYWGQGTQVTVSS,low polyreactivity
5,QVQLVESGGGLVQAGGSLRLSCADSGNIFYKYDMGWYRQAPGKERELVATISSDANTKYADSVKGRFTISRDNAKNTVYLHMNSLKPEDTAVYYCNVKDPVVRGALRDPTEYDSWGQGTQVTVSS,low polyreactivity
6,QVQLVESGGGLVQAGGSLRLSCADSGNTFYANAMGWYRQAPGKEREFVASITRSGGSTYYADSVKGRFTISRDNAKNTVYLQMNSLKPEVTAVYYCAADSWFKYDYWGQGTQVTVSS,low polyreactivity
7,QVQLVESGGGLVQAGGSLRLSCADSGRIFADNAMGWYRHAPGKERELVAAITWSGGITFYADSVKGRFTISRDNAKKTVYLQMNSLKPEDTAVYYCATYGHRDTPYNYWGQGTQVTVSS,low polyreactivity
8,QVQLVESGGGLVQAGGSLRLSCADSGRIFAWYAMGWYRQAPGKERELVAVITSSDGSTHYADSVKGRFTISRDNAKNTVYLQMNSLKPEDTAVYYCNADSQRPRRRSNYWGQGTQVTVSS,low polyreactivity
9,QVQLVESGGGLVQAGGSLRLSCADSGRIFPQYTMGWYRQAPGKERELVAGISYGGVSTYYADSVKGRFTISRDNAKNTVYLHMNSLKPEDTAVYYCARPYGYRGYLRYYWGQGTQVTVSS,high polyreactivity
10,QVQLVESGGGLVQAGGSLRLSCADSGRIFRSNAMGWYRQAPGKERELVATITSSGGRTYYADSVKGRFTISRDNAKNSVYLQMNRLKPEVSAVYYCNAQQRTRGQKAQWVRDEYWGQGTQVTLSS,low polyreactivity
11,QVQLVESGGGLVQAGGSLRLSCADSGRIFRYYAMGWYRQAPGKERELVAAISGSGGSTYYADSVKGRFTISRDNSKNTVYLHMNSLKPEDTSVYYCAAAEYLYTLPYGYWGQGTQVTVSS,low polyreactivity
12,QVQLVESGGGLVQAGGSLRLSCADSGRIFSPNAMGWYRQAPGKETELVASISSAGSTNYADSVKGRFTISRDNAKNTVYLQMNSLKPEDTAFYYCAADYYGYWLSVHAWGAVTFDYWGQGTQVTVSS,low polyreactivity
13,QVQLVESGGGLVQAGGSLRLSCADSGRIFVHNAMGCYRQAPGKERELVAAISWRATRTYYADSVKGRFTISRDNAKNTVYLQMNSLKPEDTAVYYWAAVTPAYSTSSSSYDYWGQGTQVTVSS,high polyreactivity
14,QVQLVESGGGLVQAGGSLRLSCADSGRIFVRNAMGWYRPAPGKERELVADSTNGGSTNYADSVKGRFTISRDNAKNTVYLQRNSQKPEDTAVYYCAADTLGVYDGDYWGQGTQVTVSS,low polyreactivity
15,QVQLVESGGGLVQAGGSLRLSCADSGRIFVYYAMGWYRQAPGKERELVASISYSGASTYYADSVKGRFTISRDNAKNTVYLQMNSLKPEDTAVYYCARDVWNYWDGVFQYYSYDFDYWGQGTQVTVSS,low polyreactivity
16,QVQLVESGGGLVQAGGSLRLSCADSGRIFWANAMGWYRQAPGKERELVAAITWRGTSTYYADSVKGRFTISRDNAKNTVYLQMNSLKPEDTAVYYCAKVPYLKYGYDYWGQGTQVTVSS,high polyreactivity
17,QVQLVESGGGLVQAGGSLRLSCADSGRIYYSNAMGWSRQAPGKEREWVAAISRSGVRTYYADSVKGRYSISRDNAKNTVYLQKNSLKPEDTADYYCAAVIYGTTPQDEYDYWGQGTQVTVSS,low polyreactivity
18,QVQLVESGGGLVQAGGSLRLSCADSGRTFEPYTMGWYRQAPGKERELVAAISWRGGSTYADSVKGRFTISRDNAKNTVYLQMNSLKPEDTAVYYCAAEPYWHLDSQYFGREYDYWGQGTQVTVSS,low polyreactivity
19,QVQLVESGGGLVQAGGSLRLSCADSGRTFFYYAMGWYRQAPGKERELVAAITTGGSTNYADSVKGRFTISRDNAKNTDYLQMKSLNPEDTEVYFCNADYDKGVRFNFTASFGEFDYWGQGTQVTVSS,low polyreactivity
20,QVQLVESGGGLVQAGGSLRLSCADSGRTFYGNAMGWYRQAPGKERELVAAISISGGSTYYADSVKGRFTISRDNAKNTVYIQMNSLKPEDTAVYYCNAQEYYYYPYVYDSDYWGQGTQVTVSS,low polyreactivity
21,QVQLVESGGGLVQAGGSLRLSCADSGRTFYINAMGWYRQAPGKERELVAAISSSGGITYYADSVKGRFTISRENAKNTVYLQMNSLKPEDTAVYYCNAPYVYSWHYDYWGQGTQVTVSS,low polyreactivity
22,QVQLVESGGGLVQAGGSLRLSCADSGRTFYVNAMGWYRQAPGKEREFVAAISRRGGSTYYADSVKGRFTISRDNAKNTVYLQMNSLKPEDTAVYYCIAAYSSRYDYWGQGTQVTVSS,high polyreactivity

row,Sequence,polyreactivity (PSR sort gate)
1,QVQLVESGGGLVQAGGSLRLSCADSGSIFDFNAMGWYRQAPGKERELVAAITWSGGSTYYADSVKGRFTLSRDNAKNTVYLQMNSLKPEDTAVYYCAADSLYDDFYYWGQGTQVTVSS,low polyreactivity
2,QVQLVESGGGLVQAGGSLRLSCADSGSIFKYYVMGWYRQAPGKERELVADITSGGSTKYADSVKGRFTISRDNAKNTVYLQMNSLKPADTAVYYCAASWWYEIFDYWGQGTQVTVSS,low polyreactivity
3,QVQLVESGGGLVQAGGSLRLSCADSGSIFRYYFMGCYRQAPGKERELVSAISSGGRTYYADSVKGRFTISRDNAKNTVYLQMNSLNPEDTAVYYCNDQGLFYCEMDYWGQGTQVTVSS,high polyreactivity
4,QVQLVESGGGLVQAGGSLRLSCADSGSIFWYYAMGWSRQAPGKETELVADITSTGGSTYYADSVKGRFTISRDYAKNTVYFQMNSLKPEVSAVYYCAAEACYHWYYSLGYWGQGTQVTVSS,high polyreactivity
5,QVQLVESGGGLVQAGGSLRLSCADSGSIFYTYAMGWYRQAPGKEREFVAAITQTGGTTYNADSVKGRFTISRDNAKNTVYFQMNSLKQEDTAVYYCAARYRAYKLYGRHYYWGQGTQVTVSS,high polyreactivity
6,QVQLVESGGGLVQAGGSLRLSCADSGSILTRNAMGWYRQAPGKERELVAAISYSGVRTYYADSVKGRFTISRDNAKNNVYLQMNSLKQEDTAVYYCNAVISSRYDYWGQGTQVTVSS,high polyreactivity
7,QVQLVESGGGLVQAGGSLRLSCADSGSISYSYAMGWYRQAPGKDRELVAAISWRGVSTYYADSVKGRFTISRDNAKNTVYLQMNSLKPEDTAVYYCNAVHHYPEHIGGGYWGQGTLVTVSS,low polyreactivity
8,QVQLVESGGGLVQAGGSLRLSCADSGSTFNSNVMGWYRQAPGKERELVAAISRSGGNTYYADSVKGRFTISRDNAKNTVYLQMNSLKPEDTAVYYCNKDGRYPYDYWGQGTQVTVSS,high polyreactivity
9,QVQLVESGGGLVQAGGSLRLSCADSGSTFYYYTKGWYRQAPGKERELVAAISFSGGSTYYADSVKGRFTISLYNAKNTVYLQMNSLKPEDTAVYDCAAAQRVYKSWGYYWGQGSQVTVSS,low polyreactivity
10,QVQLVESGGGLVQAGGSLRLSCADSGYTFGRNAMGWYRQAPGKERELVATISQRGGSTYYADSVKGRFTISLDNAKNTVYLQLNSLKPEDTAVYYCAAGPIYRYRRYYYWGQGTQVTVSS,high polyreactivity
11,QVQLVESGGGLVQAGGSLRLSCADSRSIITNNAMGWYRQAPGKERELVAAISGSGGSTYYADSVKGRFTISRDNAKNTVYLQMNSLKPEDTAVYYCAANKSSRRMNYWGLGTQVTVSS,high polyreactivity
12,QVQLVESGGGLVQAGGSLRLSCAGSGFISYYYAMGWYRQAPGKEREFVAAITSSGGSTRYADSVKGRFTISRDNAKNTVYLQMNSLKPEDTAVYYCNADYYWFFDFFDYDYWGQGTQVTVSS,low polyreactivity
13,QVQLVESGGGLVQAGGSLRLSCAGSGINFHLYAMGWYRQAPGKERELVAAISWNGSSTYYADSVKGRFTISRDNAKNTVYLQMNSLKPEDTAVYYCAASYGYFEDYGYWGQGNQVTVSS,low polyreactivity
14,QVQLVESGGGLVQAGGSLRLSCAGSGLIFDDYPMGWYRQAPGKERELVAAISWSDGTTYYADSVKGRFTISRDNAKNTVYLQMNSLKPEDTAVYYCAAEEVSGWEYDYWGQGTQVTVSS,high polyreactivity
15,QVQLVESGGGLVQAGGSLRLSCAGSGRSFVYNAMGWYRQAPGQDRELVAAITSGGRTYYADSVKGRFTISRDNAKNTVYLQINSLKPEDTAVYDCAKRFWFNTYAAHPAGFDYWGQGTQVTVSS,low polyreactivity
16,QVQLVESGGGLVQAGGSLRLSCAGSGRTSLAYAMGWYRQAPGKERELVAGITSGGNTNYADSVKGRFTISCDNAKNTVYLQMNSLKPEDTAVYYCNKKKRWQWYSESVLDYLGFYSWGQGTQVTVSS,low polyreactivity
17,QVQLVESGGGLVQAGGSLRLSCAGSGSTFFEYAMGWYRQAPGKDREFVAGISWSGGITYYADSVKGRFTISRDNAKNTVYLQMNSLKPEDTAVYYCASAGGDWYGVDYWGQGTQVTVSS,low polyreactivity
18,QVQLVESGGGLVQAGGSLRLSCAGSGSTFQNNAMGWYSQAPGKERELVAAISRSSGRRYYADSVKGRFTISRDHAKNTVYCQMNSLKPEDTAGYYCAASLGGYITRYNYWGQGTQVTVSS,high polyreactivity
19,QVQLVESGGGLVQAGGSLRLSCAGSGSTFRSNALGWYRQEPGKVRELVAAISLRGGSTDYADSVKGRFTISRDNAKNTVYLQMNSLTPEDTAVYFCAKVSKRVGFPTAMNYWGHGTQVTVSS,high polyreactivity
20,QVQLVESGGGLVQAGGSLRLSCAHSGFIFCNYAMGWYRHAPGKERELVAAITSGGTSTYYADSVKGRFTISRDNAKNTVYLQMNCLKPEDTAVYFCAAVTGLFSYWDYSAMYYWGQGTQVTVSS,high polyreactivity
21,QVQLVESGGGLVQAGGSLRLSCAHSGYILGGYGMGWYRQAPGKERELVAVITSSGSTDYADSVKGRYTISRDNAMNTVYVQMNTLKPEDSAGYYCAADFLWYIYNIGTSLEYDYWGQGTQVTVSS,low polyreactivity
